Measured values taken from IntAct's records for PubMed 22863780.

Biological target: rcan1_mouse Rcan1 (UniProt Q9JHG6)

effect of a mutation on the interaction: disrupting interaction
Substance: Fragile X messenger ribonucleoprotein 1 (Mus musculus) (from UniProt P35922) S499A
